Experimental data: patent US20060140858A1, “Drug pre-targeting by means of bi-specific antibodies and hapten constructs comprising a carrier peptide and the active agent(s)” (Immunomedics, Inc., priority 2002, published 2006)

How the values were obtained:
[1] = test system: GW-39 tumor xenografts; assay: Pretargeting: I-125 F6 × 734-F(ab′)2, 72 h later In-111-IMP-224, biodistribution
[2] = as above; conditions: female, mouse, in vivo, total radioactivity; for tissue to tissue ratio at 1 h / tissue to tissue ratio at 4 h / tissue to tissue ratio at 24 h: 10 uCi, tumor-to-normal organ ratio; for tissue uptake at 1 h / tissue uptake at 4 h / tissue uptake at 24 h: % ID/g tissue
[3] = nude (Taconic NCRNU), Blood, 1 h
[4] = nude (Taconic NCRNU), Blood, 4 h
[5] = nude (Taconic NCRNU), Blood, 24 h
[6] = nude (Taconic NCRNU), Kidney, 1 h
[7] = nude (Taconic NCRNU), Kidney, 4 h
[8] = nude (Taconic NCRNU), Kidney, 24 h
[9] = nude (Taconic NCRNU), Large Int., 1 h
[10] = nude (Taconic NCRNU), Large Int., 4 h
[11] = nude (Taconic NCRNU), Large Int., 24 h
[12] = nude (Taconic NCRNU), Lungs, 1 h
[13] = nude (Taconic NCRNU), Lungs, 4 h
[14] = nude (Taconic NCRNU), Lungs, 24 h
[15] = nude (Taconic NCRNU), Muscle, 1 h
[16] = nude (Taconic NCRNU), Small Int., 4 h
[17] = nude (Taconic NCRNU), Small Int., 24 h
[18] = nude (Taconic NCRNU), Stomach, 1 h
[19] = nude (Taconic NCRNU), Stomach, 4 h
[20] = nude (Taconic NCRNU), Stomach, 24 h

In the case of `COc1cccc2c1C(=O)c1c(O)c3c(c(O)c1C2=O)C[C@@](O)(C(CO)=NNc1ccc(C(=O)N[C@@H](CCCCNC(=O)CN(CCN(CCN(CC(=O)O)CC(=O)O)CC(=O)O)CC(=O)O)C(=O)N[C@@H](Cc2ccc(O)cc2)C(=O)N[C@@H](CCCCNC(=O)CN(CCN(CCN(CC(=O)O)CC(=O)O)CC(=O)O)CC(=O)O)C(N)=O)cc1)C[C@@H]3O[C@H]1C[C@H](N)[C@H](O)[C@H](C)O1` [IMP 224, Dox = N—NH—C6H4—CO-Lys(DTPA)-Tyr-Lys(DTPA)-NH2], the “% ID/g tissue” value ([1]; Liver, 1 h) is reported as 0.4 ± 0.1 % ID/g, the “% ID/g tissue” value ([1]; Liver, 4 h) is reported as 0.3 ± 0.0 % ID/g and the “% ID/g tissue” value ([1]; Liver, 24 h) is reported as 0.3 ± 0.0 % ID/g. The “% ID/g tissue” value ([1]; Muscle, 4 h) was 0.0 ± 0.0 % ID/g, the “% ID/g tissue” value ([1]; Muscle, 24 h) was 0.0 ± 0.0 % ID/g and the tumor-to-normal organ ratio ([1]; Small Int., 1 h) was 31.9 ± 18. The “% ID/g tissue” value ([1]; Spleen, 1 h) was 0.4 ± 0.1 % ID/g, the “% ID/g tissue” value ([1]; Spleen, 4 h) was 0.2 ± 0.0 % ID/g and the “% ID/g tissue” value ([1]; Spleen, 24 h) was 0.2 ± 0.0 % ID/g. For the same compound, the “% ID/g tissue” value ([1]; Tail, 1 h) was 1.1 ± 0.2 % ID/g, the “% ID/g tissue” value ([1]; Tail, 4 h) was 0.4 ± 0.1 % ID/g and the “% ID/g tissue” value ([1]; Tail, 24 h) was 0.2 ± 0.0 % ID/g. For the same compound, the “% ID/g tissue” value ([1]; Urine, 1 h) was 168 ± 106 % ID/g, the “% ID/g tissue” value ([1]; Urine, 4 h) was 31.8 ± 31 % ID/g and the “% ID/g tissue” value ([1]; Urine, 24 h) was 1.2 ± 0.2 % ID/g. It also gave a tissue to tissue ratio at 1 h ([2]; NCRNU nude, GW-39, 1 h) of 1, a tissue to tissue ratio at 4 h ([2]; NCRNU nude, GW-39, 4 h) of 1 and a tissue to tissue ratio at 24 h ([2]; NCRNU nude, GW-39, 24 h) of 1. For the same compound, the tissue to tissue ratio at 1 h ([2]; NCRNU nude, Liver, 1 h) was 24 ± 5.9, the tissue to tissue ratio at 4 h ([2]; NCRNU nude, Liver, 4 h) was 35.4 ± 6.9 and the tissue to tissue ratio at 24 h ([2]; NCRNU nude, Liver, 24 h) was 31.6 ± 5.8. The tissue to tissue ratio at 1 h ([2]; NCRNU nude, Tail, 1 h) was 9.4 ± 2.8, the tissue to tissue ratio at 4 h ([2]; NCRNU nude, Tail, 4 h) was 26.4 ± 5.2 and the tissue to tissue ratio at 24 h ([2]; NCRNU nude, Tail, 24 h) was 55.9 ± 5.7. It also gave a tissue to tissue ratio at 1 h ([2]; NCRNU nude, Urine, 1 h) of 0.3 ± 0.5, a tissue to tissue ratio at 4 h ([2]; NCRNU nude, Urine, 4 h) of 0.71 ± 0.6 and a tissue to tissue ratio at 24 h ([2]; NCRNU nude, Urine, 24 h) of 8.3 ± 1.3. It also gave a tissue to tissue ratio at 1 h [2, 3] of 6.1 ± 2.5, a tissue to tissue ratio at 4 h [2, 4] of 12.8 ± 2 and a tissue to tissue ratio at 24 h [2, 5] of 41.8 ± 6.3. For the same compound, the tissue to tissue ratio at 1 h [2, 6] was 3 ± 0.5, the tissue to tissue ratio at 4 h [2, 7] was 3.9 ± 0.5 and the tissue to tissue ratio at 24 h [2, 8] was 5 ± 0.5. For the same compound, the tissue to tissue ratio at 1 h [2, 9] was 87.1 ± 35, the tissue to tissue ratio at 4 h [2, 10] was 45.6 ± 19 and the tissue to tissue ratio at 24 h [2, 11] was 92.4 ± 38. It also gave a tissue to tissue ratio at 1 h [2, 12] of 13.4 ± 2.7, a tissue to tissue ratio at 4 h [2, 13] of 30.1 ± 4.9 and a tissue to tissue ratio at 24 h [2, 14] of 69 ± 9.4. For the same compound, the tissue to tissue ratio at 1 h [2, 15] was 38.6 ± 13, the tissue to tissue ratio at 4 h ([2]; nude (Taconic NCRNU), Muscle, 4 h) was 727 ± 797 and the tissue to tissue ratio at 24 h ([2]; nude (Taconic NCRNU), Muscle, 24 h) was 283 ± 46. For the same compound, the tissue to tissue ratio at 4 h [2, 16] was 51.6 ± 14, the tissue to tissue ratio at 24 h [2, 17] was 110 ± 13 and the tissue to tissue ratio at 1 h ([2]; nude (Taconic NCRNU), Spleen, 1 h) was 28.7 ± 8.7. It also gave a tissue to tissue ratio at 4 h ([2]; nude (Taconic NCRNU), Spleen, 4 h) of 44.7 ± 10, a tissue to tissue ratio at 24 h ([2]; nude (Taconic NCRNU), Spleen, 24 h) of 47 ± 2.2 and a tissue to tissue ratio at 1 h [2, 18] of 48.7 ± 37. It also gave a tissue to tissue ratio at 4 h [2, 19] of 128 ± 46, a tissue to tissue ratio at 24 h [2, 20] of 147 ± 39 and a tissue uptake at 1 h [2, 3] of 1.8 ± 0.6 %ID/g. It also gave a tissue uptake at 4 h [2, 4] of 0.9 ± 0.2 %ID/g, a tissue uptake at 24 h [2, 5] of 0.2 %ID/g and a tissue uptake at 1 h [2, 6] of 3.5 ± 0.6 %ID/g. The tissue uptake at 4 h [2, 7] was 2.8 ± 0.3 %ID/g, the tissue uptake at 24 h [2, 8] was 1.9 ± 0.2 %ID/g and the tissue uptake at 1 h [2, 9] was 0.1 %ID/g. For the same compound, the tissue uptake at 4 h [2, 10] was 0.3 ± 0.1 %ID/g, the tissue uptake at 24 h [2, 11] was 0.1 ± 0.1 %ID/g and the tissue uptake at 1 h [2, 12] was 0.8 ± 0.2 %ID/g. For the same compound, the tissue uptake at 4 h [2, 13] was 0.4 %ID/g, the tissue uptake at 24 h [2, 14] was 0.1 %ID/g and the tissue uptake at 1 h [2, 15] was 0.3 ± 0.2 %ID/g. It also gave a tissue uptake at 1 h ([2]; nude (Taconic NCRNU), Small Int., 1 h) of 0.5 ± 0.4 %ID/g, a tissue uptake at 4 h [2, 16] of 0.2 %ID/g and a tissue uptake at 24 h [2, 17] of 0.1 %ID/g. It also gave a tissue uptake at 1 h [2, 18] of 0.8 ± 1.3 %ID/g, a tissue uptake at 4 h [2, 19] of 0.1 %ID/g and a tissue uptake at 24 h [2, 20] of 0.1 %ID/g.
